# T1: polypeptide 4.5, FITC(Aha)STPVSRANMK (S→R)
# T1 chain: STPVSRANMK
# T2: polypeptide 4.2, FITC(Aha)STPFSSANMK (V→F)
# T2 chain: STPFSSANMK
# T3: polypeptide 4.4, FITC(Aha)STPVSFANMK (S→F)
# T3 chain: STPVSFANMK
# T4: polypeptide 4.3, FITC(Aha)STPRSSANMK (V→R)
# T4 chain: STPRSSANMK
# T5: polypeptide 4.1, FITC(Aha)STPVSSANMK (wt CK2-derived peptide)
# T5 chain: STPVSSANMK
# T6: polypeptide 4.6, FITC(Aha)STPVSSANMK(DEAC), unglycosylated
# T6 chain: STPVSSANMK
# T7: polypeptide 4.8, FITC(Aha)STPVSRANMK(DEAC), unglycosylated
# T7 chain: STPVSRANMK
# B1: O-Linked N-acetylglucosaminyltransferase (OGT) (protein)
# chain: MHYKEAIRISPTFADAYSNMGNTLKEMQDVQGALQCYTRAIQINPAFADAHSNLASIHKDSGNIPEAIASYRTALKLKPDFPDAYCNLAHCLQIVCDWTDYDERMKKLVSIVADQLEKNRLPSVHPHHSMLYPLSHGFRKAIAERHGNLCLDKINVLHKPPYEHPKDLKLSDGRLRVGYVSSDFGNHPTSHLMQSIPGMHNPDKFEVFCYALSPDDGTNFRVKVMAEANHFIDLSQIPCNGKAADRIHQDGIHILVNMNGYTKGARNELFALRPAPIQAMWLGYPGTSGALFMDYIITDQETSPAEVAEQYSEKLAYMPHTFFIGDHANMFPHLKKKAVIDFKSNGHIYDNRIVLNGIDLKAFLDSLPDVKIVKMKCPDGGDNADSSNTALNMPVIPMNTIAEAVIEMINRGQIQITINGFSISNGLATTQINNKAATGEEVPRTIIVTTRSQYGLPEDAIVYCNFNQLYKIDPSTLQMWANILKRVPNSVLWLLRFPAVGEPNIQQYAQNMGLPQNRIIFSPVAPKEEHVRRGQLADVCLDTPLCNGHTTGMDVLWAGTPMVTMPGETLASRVAASQLTCLGCLELIAKNRQEYEDIAVKLGTDLEYLKKVRGKVWKQRISSPLFNTKQYTMELERLYLQMWEHYAAGNKPDHMIKPVEVTESA
# B2: Proteinase K (protein)
# chain: AAQTNAPWGLARISSTSPGTSTYYYDESAGQGSCVYVIDTGIEASHPEFEGRAQMVKTYYYSSRDGNGHGTHCAGTVGSRTYGVAKKTQLFGVKVLDDNGSGQYSTIIAGMDFVASDKNNRNCPKGVVASLSLGGGYSSSVNSAAARLQSSGVMVAVAAGNNNADARNYSPASEPSVCTVGASDRYDRRSSFSNYGSVLDIFGPGTSILSTWIGGSTRSISGTSMATPHVAGLAAYLMTLGKTTAASACRYIADTANKGDLSNIPFGTVNLLAYNNYQA
# Key:
# [1] = target: T1, polypeptide 4.5, FITC(Aha)STPVSRANMK …
# [2] = target: T2, polypeptide 4.2, FITC(Aha)STPFSSANMK …
# [3] = target: T3, polypeptide 4.4, FITC(Aha)STPVSFANMK …
# [4] = target: T4, polypeptide 4.3, FITC(Aha)STPRSSANMK …
# [5] = target: T5, polypeptide 4.1, FITC(Aha)STPVSSANMK …
# [6] = target: T6, polypeptide 4.6, …
# [7] = target: T7, polypeptide 4.8, …
Protein,Relative rate of glycosylation [1],Relative rate of glycosylation [2],Relative rate of glycosylation [3],Relative rate of glycosylation [4],Relative rate of glycosylation [5],"rate of proteolysis, unglycosylated against glycosylated polypeptide [6]","rate of proteolysis, unglycosylated against glycosylated polypeptide [7]"
B1,0.7,0.15,0.4,0,1,–,–
B2,–,–,–,–,–,˜100-500 times faster,˜100-500 times faster

# Reference: US8524444
